In US20130224246A1:

How the values were obtained:
[1] = molecular target: MBP-LEL113-201, maltose-binding protein linked to the CD81 large extracellular loop between residues 113 to 201 (UniProt P60033); test: EIA: E2661-his on coated MBP-LEL113-201, detected with anti-His
[2] = molecular target: MBP-LEL113-201, maltose-binding protein linked to the CD81 large extracellular loop between residues 113 to 201 (UniProt P60033); test: EIA: HCVpp lysate on coated MBP-LEL113-201, detected with H53

MBP-LEL113-201, maltose-binding protein linked to the CD81 large extracellular loop between residues 113 to 201, sequence (P60033 113-201 limits assumed): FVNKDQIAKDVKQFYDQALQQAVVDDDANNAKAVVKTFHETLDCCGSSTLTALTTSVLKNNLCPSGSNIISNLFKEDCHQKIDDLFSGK

E2661-his C452A/C459A (from UniProt P27958 384-661)
% of WT CD81-LEL binding activity retained [1]: 40%
decrease in CD81 binding activity [1]: 60%

HCVpp E2 C486A (from UniProt P27958 384-746)
% of WT LEL-binding activity retained [2]: 80%

HCVpp E2 C452A (from UniProt P27958 384-746)
CD81-binding function (reduced) [2]: 80%

HCVpp E2 C569A (from UniProt P27958 384-746)
reduction in CD81 binding ability [2]: 70%

E2661-his M+C459A (from UniProt P27958 384-661)
fold reduction in LEL binding [1]: 16 fold

HCVpp E2 C459A (from UniProt P27958 384-746)
CD81-binding function (reduced) [2]: 40%
